Key:
[1] = biological target: T1, GlpR (Pseudomonas aeruginosa, UniProt Q51391); experiment: EMSA, prevention of GlpR binding to glpFK and glpD promoter DNA; conditions: 10 mM G3P (lithium salt), 500 nM GlpR, 3.5 nM DNA probe, pH 7.4, 30 °C; effector (inducer)
T1 construct: recombinant from pETDuet-glpR in E. coli BL21(DE3), HisTrap HP purified
T1 sequence (Q51391 1-251): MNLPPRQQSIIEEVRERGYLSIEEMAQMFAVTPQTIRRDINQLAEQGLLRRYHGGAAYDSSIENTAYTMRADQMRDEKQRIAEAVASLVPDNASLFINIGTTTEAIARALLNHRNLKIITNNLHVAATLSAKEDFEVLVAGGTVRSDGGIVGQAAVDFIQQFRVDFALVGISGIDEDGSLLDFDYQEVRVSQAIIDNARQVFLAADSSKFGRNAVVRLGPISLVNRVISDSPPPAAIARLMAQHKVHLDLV

[2] = system: O=P(O)(O)OC[C@H](O)CO; experiment: purified protein; conditions: 5 mM MgCl2, 50 mM Tris-HCl pH 7.0, bis(cyclohexylammonium) salt
[3] = substrate: O=P(O)(O)OC[C@H](O)CO; experiment: released inorganic phosphate, Michaelis-Menten regression; format: biochemical, Pseudomonas aeruginosa; conditions: 5 mM MgCl2, 50 mM Tris-HCl pH 7.0, bis(cyclohexylammonium) salt

For `O=P(O)(O)OC[C@H](O)CO` [G3P], the “EMSA, prevention of GlpR binding to glpFK and glpD promoter DNA” value [1] was “G3P prevents GlpR binding to the glpFK (D) and glpD (E) promoter regions”.

Work on PA3172 (Pseudomonas aeruginosa PAO1) yielded a Km [2] of 5.634 ± 0.209 mM.

B1: PA0562 (Pseudomonas aeruginosa PAO1) (protein)
chain: MPHPIDALISDCDGVLVDSEVIAERVMYEALSAYAPLEELQRLLEGTFGLTSRDILDRVEKHFGLRIPDSFNREVRQRSEEMVAQVQPIPGAREALLALDLPVAVASNSRRHSLERSLARAGLSELIGERLASADMVALPKPAPDVYLHAASLLGVAPERCLVVEDSSTGTRAALAAGMRVIGFVGAGHIPAGHAEVLRELGAIAIVEHMRELPETVARLRRTV
B1 was tested, and the Km [3] was 8.937 ± 1.350 mM.
